The assay deals with Recombinant purified HER2 receptor composed of the ectodomain of HER2 fused to the Fc of human IgG (human) (UniProt P04626). Description: SPR (Biacore 3000), HER2-Fc immobilized, peptide as analyte, 25 C.

This passage reports Kd, koff and kon results from US20100311669A1.

Positions of bridges follow the written chain, without caps; N, C: chain ends. No end group written: not given here.

A word on the Kd: it is a measure of binding affinity in units of concentration. In general, koff refers to the first-order rate constant of dissociation. The kon is a measure of how fast the partners come together.

B1: AHNP analogue 8, …-OH (cyclic) (peptide)
peptide: FCGDGFYACYMDV-OH
modifications: disulfide 2-9
As for B1, the Kd is 760 nM, the koff amounted to 0.000701 s⁻¹ and the kon was 922 M⁻¹ s⁻¹.
